Assay results as given in patent publication US20200308575A1 (TWIST BIOSCIENCE, published 2020).

Biological target: program cell death protein 1 (PD-1) (UniProt Q15116 25-167, limits assumed)
Assay: SPR (Carterra LSA), IgG, monovalent affinity

Chain of program cell death protein 1 (PD-1) (Q15116 25-167 limits assumed): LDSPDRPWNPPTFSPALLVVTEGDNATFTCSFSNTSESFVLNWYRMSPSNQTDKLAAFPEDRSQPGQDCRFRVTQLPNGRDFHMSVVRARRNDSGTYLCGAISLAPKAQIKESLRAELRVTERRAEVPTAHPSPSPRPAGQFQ

B1: PD1-48 (antibody, V domains shown)
VH: EVQLVESGGGLVQPGRSLRLSCAASGFTFDDYALHWVRQAPGKDLEWVSGISWNSGSQGYADSVKGRFTISRDNAKNSLYLQMNSLRAEDTALYYCVREKGPGLTGSTADYYGLDAWGQGTMVTVSS
- Kd: 64.3 nM

B2: PD1-49 (antibody, V domains shown)
VH: EVQLVESGGGLVQPGRSLRLSCAASGFTFDDYAFHWVRQAPGKDLEWVSGISWNSGSQGYADSVKGRFTISRDNAKNSLYLQMNSLRAEDTALYYCVREKGPGLTGSTADYYGLDAWGQGTMVTVSS
- Kd: 201 nM

B3: PD1-24 (antibody, V domains shown)
VH: EVQLVESGGGLVQPGRSLRLSCAASGFTFDDYAMHWVRQAPGKDLEWVSGISWNSGSMGYAASVKGRFTISRDNAKNSLYLQMNSLRAEDTALYYCVREKGPGLTGSTADYYGLDAWGQGTMVTVSS
- Kd: 190 nM

B4: PD1-39 (antibody, V domains shown)
VH: EVQLVESGGGLVQPGRSLRLSCAASGFTFDDYALHWVRQAPGKDLEWVSGISWNGGSYGYADSVKGRFTISRDNAKNSLYLQMNSLRAEDTALYYCVREKGPGLTGSTADYYGLDAWGQGTMVTVSS
- Kd: 240 nM

B5: PD1-38 (antibody, V domains shown)
VH: EVQLVESGGGLVQPGRSLRLSCAASGFTFDDYALHWVRQAPGKDLEWVSGISWNGGSMGYADSVKGRFTISRDNAKNSLYLQMNSLRAEDTALYYCVREKGPGLTGSTADYYGLDAWGQGTMVTVSS
- Kd: 204 nM

B6: PD1-45 (antibody, V domains shown)
VH: EVQLVESGGGLVQPGRSLRLSCAASGFTFDDYALHWVRQAPGKDLEWVSGISWNAGSQGYADSVKGRFTISRDNAKNSLYLQMNSLRAEDTALYYCVREKGPGLTGSTADYYGLDAWGQGTMVTVSS
- Kd: 243 nM

B7: PD1-21 (antibody, V domains shown)
VH: EVQLVESGGGLVQPGRSLRLSCAASGFTFDDYAMHWVRQAPGKDLEWVSGISWNGGSMGYAASVKGRFTISRDNAKNSLYLQMNSLRAEDTALYYCVREKGPGLTGSTADYYGLDVWGQGTMVTVSS
- Kd: 92 nM

B8: PD1-50 (antibody, V domains shown)
VH: EVQLVESGGGLVQPGRSLRLSCAASGFTFDDYAFHWVRQAPGKDLEWVSGISWNAGSQGYADSVKGRFTISRDNAKNSLYLQMNSLRAEDTALYYCVREKGPGLTGSTADYYGLDAWGQGTMVTVSS
- Kd: 87.5 nM

B9: PD1-44 (antibody, V domains shown)
VH: EVQLVESGGGLVQPGRSLRLSCAASGFTFDDYALHWVRQAPGKDLEWVSGISWNSGSYGYADSVKGRFTISRDNAKNSLYLQMNSLRAEDTALYYCVREKGPGLTGSTADYYGLDAWGQGTMVTVSS
- Kd: 226 nM

B10: PD1-32 (antibody, V domains shown)
VH: EVQLVESGGGLVQPGRSLRLSCAASGFTFDDYAMHWVRQAPGKDLEWVSGISWNSGSMGYADSVKGRFTISRDNAKNSLYLQMNSLRAEDTALYYCVREKGPGLTGSTADYYGLDAWGQGTMVTVSS
- Kd: 92.2 nM

B11: PD1-20 (antibody, V domains shown)
VH: EVQLVESGGGLVQPGRSLRLSCAASGFTFDDYAMHWVRQAPGKDLEWVSGISWNGGSMGYADSVKGRFTISRDNAKNSLYLQMNSLRAEDTALYYCVREKGPGLTGSTADYYGLDVWGQGTMVTVSS
- Kd: 109 nM

B12: PD1-22 (antibody, V domains shown)
VH: EVQLVESGGGLVQPGRSLRLSCAASGFTFDDYAMHWVRQAPGKDLEWVSGISWNGGSMGYAASVKGRFTISRDNAKNSLYLQMNSLRAEDTALYYCVREKGPGLTGSTADYYGLDAWGQGTMVTVSS
- Kd: 132 nM

B13: PD1-23 (antibody, V domains shown)
VH: QVQLVQSGAEVKKPGASVKVSCKASGYPFTSYGISWVRQAPGQGLEWMGWISAYNGNTNYAQKLQGRVTMTTDTSTSTAYMELRSLRSDDTAVYYCARDVDYSSGSGYWGQGTLVTVSS
VL: SYELMQPPSVSVSPGQTARITCSGDALPKQYAYWYQQKPGQAPVLVIYKDTERPSGIPERFSGSSSGTTVTLTISGVQAEDEADYYCQSADNSITYRVFGGGTKLTVL
notes: IgG in the assay
- Kd: 69.2 nM

B14: PD1-11 (antibody, V domains shown)
VH: QVQLVQSGAEVKKPGASVKVSCKASGYTFSNYGFSWVRQAPGQGLEWMGWISPYSGNTKYAQKLQGRVTMTTDTSTSTAYMELRSLRSDDTAVYYCARDADYSIGSGYWGQGTLVTVSS
VL: SYELMQPPSVSVSPGQTARITCSGDALPRQYAHWYQQKPGQAPVLVIYKDNVRPSGIPERFSGSSSGTTVTLTISGVQAEDEADYYCQSADTSTIYRVFGGGTKLTVL
notes: IgG in the assay
- Kd: 48.1 nM

B15: PD1-43 (antibody, V domains shown)
VH: QVQLVQSGAEVKKPGASVKVSCKASGYTFSNYGISWVRQAPGQGLEWMGWISAYSGNTKYAQKLQGRVTMTTDTSTSTAYMELRSLRSDDTAVYYCARDADYASGSGYWGQGTLVTVSS
VL: SYELMQPPSVSVSPGQTARITCSGDALPRQYAHWYQQKPGQAPVLVIYKDNERPSGIPERFSGSSSGTTVTLTISGVQAEDEADYYCQSADTSTIYRVFGGGTKLTVL
notes: IgG in the assay
- Kd: 54.4 nM

B16: PD1-30 (antibody, V domains shown)
VH: QVQLVQSGAEVKKPGASVKVSCKASGYTFNNYGVSWVRQAPGQGLEWMGWVSAYSGNTNYAQKLQGRVTMTTDTSTSTAYMELRSLRSDDTAVYYCARDADYASGSGYWGQGTLVTVSS
VL: SYELMQPPSVSVSPGQTARITCSGDALSNQYTYWYQQKPGQAPVLVIYKDKKRPSGIPERFSGSSSGTTVTLTISGVQAEDEADYYCQSADNSITYRVFGGGTKLTVL
notes: IgG in the assay
- Kd: 68.8 nM

B17: PD1-12 (antibody, V domains shown)
VH: QVQLVQSGAEVKKPGASVKVSCKASGYTFNTYGVSWVRQAPGQGLEWMGWISAYSGNTRYAQKLQGRVTMTTDTSTSTAYMELRSLRSDDTAVYYCARDFDYSSGSGYWGQGTLVTVSS
VL: SYELMQPPSVSVSPGQTARITCSGDALPKQYAYWYQQKPGQAPVLVIYKDTERPSGIPERFSGSSSGTTVTLTISGVQAEDEADYYCQSADNSITYRVFGGGTKLTVL
notes: IgG in the assay
- Kd: 53.5 nM

B18: PD1-42 (antibody, V domains shown)
VH: QVQLVQSGAEVKKPGASVKVSCKASGYTFNNFGISWVRQAPGQGLEWMGWISAYNGNTDYAQKLQGRVTMTTDTSTSTAYMELRSLRSDDTAVYYCARDMDYSSGSGYWGQGTLVTVSS
VL: SYELMQPPSVSVSPGQTARITCSGDALSNQYAYWYQQKPGQAPVLVIYKDTETPSGIPERFSGSSSGTTVTLTISGVQAEDEADYYCQSADNSITYRVFGGGTKLTVL
notes: IgG in the assay
- Kd: 53.6 nM

B19: PD1-10 (antibody, V domains shown)
VH: QVQLVQSGAEVKKPGASVKVSCKASGYRFTSYGISWVRQAPGQGLEWMGWISAYNGNTNYAQKLQGRVTMTTDTSTSTAYMELRSLRSDDTAVYYCARDADYASGSGYWGQGTLVTVSS
VL: SYELMQPPSVSVSPGQTARITCSGDALPKQYAYWYQQKPGQAPVLVIYKDTERPSGIPERFSGSSSGTTVTLTISGVQAEDEADYYCQSADNSITYRVFGGGTKLTVL
notes: IgG in the assay
- Kd: 47.4 nM

B20: PD1-14 (antibody, V domains shown)
VH: QVQLVQSGAEVKKPGASVKVSCKASGYPFTNYGISWVRQAPGQGLEWMGWTSAYSGNTNYAQKLQGRVTMTTDTSTSTAYMELRSLRSDDTAVYYCARDFDYSSGSGYWGQGTLVTVSS
VL: SYELMQPPSVSVSPGQTARITCSGDALPKQYAYWYQQKPGQAPVLVIYKDTERRSGIPERFSGSSSGTTVTLTISGVQAEDEADYYCQSADNSITYRVFGGGTKLTVL
notes: IgG in the assay
- Kd: 45.9 nM

B21: PD1-17 (antibody, V domains shown)
VH: QVQLVQSGAEVKKPGASVKVSCKASGYTFSKYGISWVRQAPGQGLEWMGWISAYSGHTDYAQKLQGRVTMTTDTSTSTAYMELRSLRSDDTAVYYCARDFDYSSGSGYWGQGTLVTVSS
VL: SYELMQPPSVSVSPGQTARITCSGDALPEQYAYWYQQKPGQAPVLVIYKDTERSSGIPERFSGSSSGTTVTLTISGVQAEDEADYYCQSADNSITYRVFGGGTKLTVL
notes: IgG in the assay
- Kd: 60.1 nM

B22: PD1-36 (antibody, V domains shown)
VH: QVQLVQSGAEVKKPGASVKVSCKASGYTFSSYGVSWVRQAPGQGLEWMGWISAYSGSTNYAQKLQGRVTMTTDTSTSTAYMELRSLRSDDTAVYYCARDAVYSSGSGYWGQGTLVTVSS
VL: SYELMQPPSVSVSPGQTARITCSGDALPNQYAHWYQQKPGQAPVLVIYKDTQRPSGIPERFSGSSSGTTVTLTISGVQAEDEADYYCQSADNSITYRVFGGGTKLTVL
notes: IgG in the assay
- Kd: 84.9 nM

B23: PD1-27 (antibody, V domains shown)
VH: QVQLVQSGAEVKKPGASVKVSCKASGYPFTNYGITWVRQAPGQGLEWMGWISAYNGNTNYAQKLQGRVTMTTDTSTSTAYMELRSLRSDDTAVYYCARDWDYSSGSGYWGQGTLVTVSS
VL: SYELMQPPSVSVSPGQTARITCSGDILPKQYAYWYQQKPGQAPVLVIYKDNERASGIPERFSGSSSGTTVTLTISGVQAEDEADYYCQSADNSITYRVFGGGTKLTVL
notes: IgG in the assay
- Kd: 88.6 nM

B24: PD1-18 (antibody, V domains shown)
VH: QVQLVQSGAEVKKPGASVKVSCKASGYTFNNYGISWVRQAPGQGLEWMGWISAYSGHTDYAQKLQGRVTMTTDTSTSTAYMELRSLRSDDTAVYYCARDWDYSSGSGYWGQGTLVTVSS
VL: SYELMQPPSVSVSPGQTARITCSGDALSNQYGYWYQQKPGQAPVLVIYKDNERASGIPERFSGSSSGTTVTLTISGVQAEDEADYYCQSADNSITYRVFGGGTKLTVL
notes: IgG in the assay
- Kd: 68.4 nM

B25: PD1-25 (antibody, V domains shown)
VH: QVQLVQSGAEVKKPGASVKVSCKASGYSFTRYGISWVRQAPGQGLEWMGWISPYSGNTKYAQKLQGRVTMTTDTSTSTAYMELRSLRSDDTAVYYCARDADYGSGSGYWGQGTLVTVSS
VL: SYELMQPPSVSVSPGQTARITCSGDALPDQYAYWYQQKPGQAPVLVIYKDYERPSGIPERFSGSSSGTTVTLTISGVQAEDEADYYCQSADNSITYRVFGGGTKLTVL
notes: IgG in the assay
- Kd: 76 nM

B26: PD1-4 (antibody, V domains shown)
VH: QVQLVQSGAEVKKPGASVKVSCKASGYTFSTSGISWVRQAPGQGLEWMGWISAYNGNTNYAQKLQGRVTMTTDTSTSTAYMELRSLRSDDTAVYYCARDFDYSSGSGYWGQGTLVTVSS
VL: SYELMQPPSVSVSPGQTARITCSGDALPKQYAYWYQQKPGQAPVLVIYKDTERPSGIPERFSGSSSGTTVTLTISGVQAEDEADYYCQSADNSITYRVFGGGTKLTVL
notes: IgG in the assay
- Kd: 31.4 nM
